Assay results published in the supplement of paper PMC9170038.

Assays:
MS2 coat protein [1] = assay: apparent KD of MS2 coat protein, switch OFF state (with FMN for OFF switches, without FMN for ON switches); designed switch direction (-1 OFF switch, 1 ON switch): -1; higher = weaker reporter binding; conditions: FMN input: 0 or 200 uM; Eterna round: R93 (includes R88 designs)
Summary of the method: (§1)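 The buffer was 100 mM Tris-HCl pH 7.5 with 80 mM KCl and 4 mM MgCl2, used without or with constant ligand. In it, RNA switches transcribed on-chip from Illumina sequencing clusters were titrated with SNAP-549-labelled MS2 coat protein in twofold steps from 0.7 or 1.5 nM to 3 µM. Apparent KD for each design is the median of its normalised cluster binding-curve fits.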

MS2 coat protein [2] = assay: apparent KD of MS2 coat protein, switch ON state; designed switch direction (-1 OFF switch, 1 ON switch): -1; higher = weaker reporter binding; conditions: FMN input: 0 or 200 uM; Eterna round: R93 (includes R88 designs)
Summary of the method: as §1

AACCAACAUGAGGAUCACCCAUGUCAGGAUAUGCAUACAACAUACAACAUACAUCAAAGCAGAAGGGACAAAAA [Amethyst 83]
apparent KD of MS2 coat protein (MS2 coat protein [1]): 24.1 nM | apparent KD of MS2 coat protein (MS2 coat protein [2]): 26.1 nM

AAAAAACAUGAGGAUCACCCAUGUGAGGAUAUGCUAAAAAAAUCCGCAUAAAAAAAUAGCAGAAGGCACAUAAA [PK1]
apparent KD of MS2 coat protein (MS2 coat protein [1]): 44.1 nM | apparent KD of MS2 coat protein (MS2 coat protein [2]): 25 nM

AAAAUGUCAGGAUAUGCGAAGGCGUCUGAUAGACGAGGCUAGCAGAAGGGACAUGAGGAUCACCCAUGUAAAAA [Power strip]
apparent KD of MS2 coat protein (MS2 coat protein [1]): 179 nM | apparent KD of MS2 coat protein (MS2 coat protein [2]): 82.2 nM

AAGAAUGGAGGAUAUACAAAAUAAAAGAAAAGAAAGAAAGAACAUGAGGAUCACCCAUGUAGAAGGCCGAAGAA [Mersekhemre Ined]
apparent KD of MS2 coat protein (MS2 coat protein [1]): 37.3 nM | apparent KD of MS2 coat protein (MS2 coat protein [2]): 14.6 nM

AGCUAGUCAGGAUAUACGAACAUGUCAAAAGACGUGAAGGGACAUGAGGAUCACCCAUGUAGAAGGGACUAGCG [salish99-ex2-14]
apparent KD of MS2 coat protein (MS2 coat protein [1]): 103 nM | apparent KD of MS2 coat protein (MS2 coat protein [2]): 36 nM

AAGAACCUAGGAUAUACAUGAGGAUCACCCAUGUAAAAGAAAGAAAAGGGAAAGAAAAGUAGAAGGAGGAAGAA [Menmire-setpenre Amenmesse]
apparent KD of MS2 coat protein (MS2 coat protein [1]): 22.2 nM | apparent KD of MS2 coat protein (MS2 coat protein [2]): 18.4 nM

AAAAAGUAAGGAUAUACAAAAAUAAAAAAUUAUGAUAAAAAACAUGAGGAUCACCCAUGUAGAAGGUACGAAAA [AJ 3]
apparent KD of MS2 coat protein (MS2 coat protein [1]): 26.7 nM | apparent KD of MS2 coat protein (MS2 coat protein [2]): 27.5 nM

AAAUGCUGAGGAUAUACAUGAGGAUCACCCAUGUGAAAUAAAAAAUGUGUGUAAUCGUGUAGAAGGCAGCAUAA [Exclusion 3.13 (FMN+ favored more)]
apparent KD of MS2 coat protein (MS2 coat protein [1]): 18.1 nM | apparent KD of MS2 coat protein (MS2 coat protein [2]): 21.6 nM

AAAAAGUGAGGAUAUGUACGAAAAAAUAAAAAAAUAAAAGUACAGAAGGCACAUGAGGAUCACCCAUGUGAAAA [EX4 397: Minimal 10]
apparent KD of MS2 coat protein (MS2 coat protein [1]): 22.9 nM | apparent KD of MS2 coat protein (MS2 coat protein [2]): 27.4 nM

AAGAACUGAGGAUAUGCAAAAGGGAAAGCUGAUCCUCAUCUACAUGAGGAUCACCCAUGUAGAAGGCGGGAAAU [Aveerve]
apparent KD of MS2 coat protein (MS2 coat protein [1]): 47.7 nM | apparent KD of MS2 coat protein (MS2 coat protein [2]): 63.4 nM

AAGAAACAUGAGGAUCACCCAUGUGAGGAUAUGCAAAAGAAAAGAAAAGAAAGAAGAAGCAGAAGGCACAAAGG [Neferkahor]
apparent KD of MS2 coat protein (MS2 coat protein [1]): 138 nM | apparent KD of MS2 coat protein (MS2 coat protein [2]): 49.1 nM

AAGAAACAUGAGGAUCACCCAUGUCAGGAUAUGCAAGACUGACGAAAGUCAGUCAAAAGCAGAAGGGACUAGAA [7-pair stack]
apparent KD of MS2 coat protein (MS2 coat protein [1]): 51.5 nM | apparent KD of MS2 coat protein (MS2 coat protein [2]): 28 nM

AAAAAGCUAGGAUAUACGAAAAAAAAGGGUAAAAUAAAUAAACAUGAGGAUCACCCAUGUAGAAGGAGCAAAAA [Mat - Exclusion 2 - Tesla mod - D37]
apparent KD of MS2 coat protein (MS2 coat protein [1]): 38.3 nM | apparent KD of MS2 coat protein (MS2 coat protein [2]): 42.6 nM

AAUAAGACAGGAUAUACGAAAAUAAGCGGAAACGCAAAGGGACAUGAGGAUCACCCAUGUAGAAGGGUCGAUAA [Tetraloop... 61% 3]
apparent KD of MS2 coat protein (MS2 coat protein [1]): 190 nM | apparent KD of MS2 coat protein (MS2 coat protein [2]): 80.2 nM

ACCGAUCGAGGAUAUACAUGAGGAUCACCCAUGUAAAGCAGAAGAAAGGCCUCAGGAUGUAGAAGGCGACGCAA [JR_Exc003_Sub405]
apparent KD of MS2 coat protein (MS2 coat protein [1]): 28.3 nM | apparent KD of MS2 coat protein (MS2 coat protein [2]): 20.1 nM

AAUAAGAGAGGAUAUACUAAAGAAAUGAAAAGAAAUAAAGAACAUGAGGAUCACCCAUGUAGAAGGCUCAAUAA [Bebnum]
apparent KD of MS2 coat protein (MS2 coat protein [1]): 24.6 nM | apparent KD of MS2 coat protein (MS2 coat protein [2]): 24.4 nM

AACAGUACAGGAUAUACAUGAGGAUCACCCAUGUCACAACAAAGCAGCGUAACACAAAGUAGAAGGGUAAUGGA [Ruby 16]
apparent KD of MS2 coat protein (MS2 coat protein [1]): 39.5 nM | apparent KD of MS2 coat protein (MS2 coat protein [2]): 48.6 nM

CACGUACAUGAGGAUCACCCAUGUUAGGAUAUGCCGGGUAAGAGAAAACAAAAAAUCAGCAGAAGGGACGAAAC [Bilbo Confounded 17 - Jieux - Exclusion 1]
apparent KD of MS2 coat protein (MS2 coat protein [1]): 31.8 nM | apparent KD of MS2 coat protein (MS2 coat protein [2]): 34.1 nM

CUCAAGUCAGGAUAUAAAAGAAAAGAAGAGAAAGAAAAGAAUUAGAAGGGACAUGAGGAUCACCCAUGUAAGAA [EteRNA is fun!]
apparent KD of MS2 coat protein (MS2 coat protein [1]): 60.6 nM | apparent KD of MS2 coat protein (MS2 coat protein [2]): 66.9 nM

AACAUGUCAGGAUAUAUAAGAAAAGAAAAGAAAGAAAAGAAAUAGAAGGGACAUGAGGAUCACCCAUGUAAGAA [EteRNA is fun!]
apparent KD of MS2 coat protein (MS2 coat protein [1]): 29 nM | apparent KD of MS2 coat protein (MS2 coat protein [2]): 45.2 nM

AUAGUACAUGAGGAUCACCCAUGUCAGGAUAUCGGAUAUGACAUGAAAAAAAUGUUAACGAGAAGGGACUAUAA [EX1 Malc#18]
apparent KD of MS2 coat protein (MS2 coat protein [1]): 49.8 nM | apparent KD of MS2 coat protein (MS2 coat protein [2]): 44.3 nM

AAAAAGUCAGGAUAUCGGAAAAAAAAAAAAAAAAGGAGAAACGAGAAGGGACAUGAGGAUCACCCAUGUAAAAA [No Frills]
apparent KD of MS2 coat protein (MS2 coat protein [1]): 44 nM | apparent KD of MS2 coat protein (MS2 coat protein [2]): 117 nM
